Key:
human WISE L110A [1] = biological target: T1, human WISE L110A (human, UniProt Q6X4U4 24-206); experiment: capture ELISA, WISE mutant supernatant (FIG. 27)
T1 construct: Alanine mutant of loop 2, used as supernatant of transiently transfected mammalian cells
T1 chain: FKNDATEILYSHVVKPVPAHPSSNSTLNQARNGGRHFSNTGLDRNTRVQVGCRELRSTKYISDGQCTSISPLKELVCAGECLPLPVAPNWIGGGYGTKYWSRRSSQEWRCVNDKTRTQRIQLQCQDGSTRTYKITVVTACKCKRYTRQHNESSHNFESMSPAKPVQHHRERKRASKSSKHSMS
Protocol: (§1) Relative capture of individual WISE mutant proteins or wild type proteins by either neutralizing antibodies or non-neutralizing antibodies was compared to assess whether any of these single amino acid changes affects the binding of an antibody to WISE protein. The bound WISE proteins were then detected using HRP-conjugated affinity-purified polyclonal antibody against WISE.
(§2) Purified anti-WISE antibodies (0.5 ug/ml) were added onto high-binding ELISA plates pre-coated with 1 ug/ml of goat anti-mouse IgG Fc (Pierce). Plates were incubated for 1 hour in room temperature. Plates were then washed 4× with Wash Buffer. Subsequently alanine scanned WISE loop-2 mutant supernatants from transient transfection cultures (100× diluted) were added and incubated for 1 hour in room temperature. After 4× wash, rabbit anti-WISE Pab-biotin (50 ng/ml)+NeutrAvidin-HRP (Pierce, Cat #31001) were added onto the plates and incubated for 1 hour in room temperature. Plates were again washed 4× with Wash Buffer. Binding was analyzed using 1-Step Ultra TMB-ELISA substrate (Pierce; Cat #34028) according to the manufacturer's instructions.

human WISE G117A [2] = biological target: T2, human WISE G117A (human, UniProt Q6X4U4 24-206); experiment: capture ELISA, WISE mutant supernatant (FIG. 27)
T2 construct: Alanine mutant of loop 2, used as supernatant of transiently transfected mammalian cells
T2 chain: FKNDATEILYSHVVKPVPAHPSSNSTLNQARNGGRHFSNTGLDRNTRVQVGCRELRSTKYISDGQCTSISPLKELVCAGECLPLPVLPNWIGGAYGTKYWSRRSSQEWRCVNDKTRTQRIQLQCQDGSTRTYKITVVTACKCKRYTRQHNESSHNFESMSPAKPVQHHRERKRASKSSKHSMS
Protocol: as §1, §2

human WISE N112A [3] = biological target: T3, human WISE N112A (human, UniProt Q6X4U4 24-206); experiment: capture ELISA, WISE mutant supernatant (FIG. 27)
T3 construct: Alanine mutant of loop 2, used as supernatant of transiently transfected mammalian cells
T3 chain: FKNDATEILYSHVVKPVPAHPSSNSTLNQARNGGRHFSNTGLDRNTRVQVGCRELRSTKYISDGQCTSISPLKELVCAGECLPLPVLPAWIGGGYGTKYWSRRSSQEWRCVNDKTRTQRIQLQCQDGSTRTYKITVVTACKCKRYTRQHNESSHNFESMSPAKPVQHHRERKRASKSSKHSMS
Protocol: as §1, §2

human WISE [4] = biological target: T4, human WISE (human, UniProt Q6X4U4 24-206); experiment: capture ELISA binding profile (FIG. 28)
T4 construct: Recombinant protein secreted from mammalian cells; also called hWISE; huWISE
T4 sequence: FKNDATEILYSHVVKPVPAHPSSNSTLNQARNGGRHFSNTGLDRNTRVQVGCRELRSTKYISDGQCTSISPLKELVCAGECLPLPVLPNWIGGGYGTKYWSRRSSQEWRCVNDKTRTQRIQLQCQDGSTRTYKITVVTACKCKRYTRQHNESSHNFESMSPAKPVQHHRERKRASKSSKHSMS
Protocol: as §1, §2

human WISE L110A [5] = biological target: T1, human WISE L110A; experiment: capture ELISA, WISE mutant supernatant (FIG. 28)
Protocol: as §1, §2

human WISE G117A [6] = biological target: T2, human WISE G117A; experiment: capture ELISA, WISE mutant supernatant (FIG. 28)
Protocol: as §1, §2

human WISE N112A [7] = biological target: T3, human WISE N112A; experiment: capture ELISA, WISE mutant supernatant (FIG. 28)
Protocol: as §1, §2

human WISE K121A = biological target: T5, human WISE K121A (human, UniProt Q6X4U4 24-206); experiment: capture ELISA, WISE mutant supernatant (FIG. 22)
T5 construct: Alanine mutant of loop 2, used as supernatant of transiently transfected mammalian cells
T5 chain: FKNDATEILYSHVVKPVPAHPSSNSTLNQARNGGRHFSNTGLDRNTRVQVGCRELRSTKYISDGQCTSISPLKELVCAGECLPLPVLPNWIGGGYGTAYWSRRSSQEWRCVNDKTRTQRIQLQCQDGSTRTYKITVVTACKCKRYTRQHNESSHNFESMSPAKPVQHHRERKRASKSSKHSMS
Protocol: as §1, §2

human WISE I114A = biological target: T6, human WISE I114A (human, UniProt Q6X4U4 24-206); experiment: capture ELISA, WISE mutant supernatant (FIG. 22)
T6 construct: Alanine mutant of loop 2, used as supernatant of transiently transfected mammalian cells
T6 chain: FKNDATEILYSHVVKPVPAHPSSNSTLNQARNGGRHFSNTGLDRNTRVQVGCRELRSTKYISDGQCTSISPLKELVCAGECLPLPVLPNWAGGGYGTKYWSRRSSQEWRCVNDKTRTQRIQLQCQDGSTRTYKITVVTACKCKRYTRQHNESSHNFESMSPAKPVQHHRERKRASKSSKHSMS
Protocol: as §1, §2

human WISE [8] = biological target: T4, human WISE; experiment: capture ELISA binding profile (FIG. 22)
Protocol: as §1, §2

B1: Ab-AJ (antibody, V domains shown)
VH: EVQLQQSGAELVRSGASVKLSCTASGFNIKDYYMHWVKQRPEQGLEWIGWIDPENGDTEYAPKFQGKATMTADTSSNTAYLQLSSLTSEDTAVYYCNFYDVYSEGALDYWGQGTSVTVSS
VL: DIVMSQSPSSLAVSAGEKVTMSCKSSQSLLNSRTRKNYLAWYQQKPGQSPKLLIYWASTRESGVPDRFTGSGSGTDFTLTISSVQAEDLAVYYCKQSYNLPTFGGGTKLEIK
notes: Murine anti-WISE monoclonal antibody; also called WISE Loop 2 Mab (Ab-AJ)
Binder B1 has an absorbance (human WISE L110A [1]) of no more than 1.5 absorbance, an absorbance (human WISE G117A [2]) of no more than 1.5 absorbance and an absorbance (human WISE N112A [3]) of no more than 1.5 absorbance.

B2: Ab-AF (antibody, V domains shown)
VH: QIQLVQSGPELKKPGETVKISCKASGYTFTDYSMHWVKQAPGKGLKWMGWINTETGEPTYADDFKGRFAFSLETSASTACLEINNLKNEDTATYFCSLTGYWGQGTSVTVSS
VL: DIQMTQSPASLSASVGETVTITCGASENIYGALNWYQRKQGKSPQVLIYGATNLADGMSSRFSGSGSGRQYSLKISSLHPDDVAMYYCQNVFSSPLTFGAGTKLELK
notes: Murine monoclonal antibody purified from hybridoma; also called WISE Loop 2 Mab (Ab-AF)
B2: binds (human WISE [4]); binds (human WISE L110A [5]); binds (human WISE G117A [6]). B2: binds (human WISE N112A [7]).

B3: Ab-AG (antibody, V domains shown)
VH: QIQLVQSGPELKKPGETVKISCKASGYTFTDYSMHWVKQAPGKGLKWMGWINTETGEPTYAADFKGRFAFSLETSASTAYLQINNLKNEDTATYFCTLTGYWGQGTSVTVSS
VL: DIQMTQSPASLSASVGETVTITCGASENIYGALNWYQRKQGKSPQLLIFGATNLADGMSSRFSGSGSGRQYSLEISSLHPDDVATYYCQNLFNSPLTFGAGTKLDLK
notes: Murine anti-WISE monoclonal antibody; also called WISE Loop 2 Mab (Ab-AG)
B3: binds (human WISE K121A); binds (human WISE I114A); binds (human WISE [8]).
